The values below come from PMC3293909.

Test [1] deals with T1, ephrin B1 (mouse (endogenous in primary osteoclasts)).
T1 sequence (P52795 whole entry, looked up): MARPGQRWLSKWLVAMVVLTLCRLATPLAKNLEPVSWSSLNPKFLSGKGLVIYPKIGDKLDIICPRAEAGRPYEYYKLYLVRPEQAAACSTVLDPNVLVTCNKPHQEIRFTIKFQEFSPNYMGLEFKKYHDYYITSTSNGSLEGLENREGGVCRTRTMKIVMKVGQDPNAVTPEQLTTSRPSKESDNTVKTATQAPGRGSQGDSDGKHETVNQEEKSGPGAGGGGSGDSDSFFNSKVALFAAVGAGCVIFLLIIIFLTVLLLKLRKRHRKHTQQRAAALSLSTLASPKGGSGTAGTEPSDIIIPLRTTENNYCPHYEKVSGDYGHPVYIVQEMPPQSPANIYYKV

The target is the same in test [2]. This is another data set of the same source.

B1: clustered soluble recombinant EphB2-Fc (Fc fusion)
chain: VEETLMDSTTATAELGWMVHPPSGWEEVSGYDENMNTIRTYQVCNVFESSQNNWLRTKFIRRRGAHRIHVEMKFSVRDCSSIPSVPGSCKETFNLYYYEADFDLATKTFPNWMENPWVKVDTIAADESFSQVDLGGRVMKINTEVRSFGPVSRNGFYLAFQDYGGCMSLIAVRVFYRKCPRIIQNGAIFQETLSGAESTSLVAARGSCIANAEEVDVPIKLYCNGDGEWLVPIGRCMCKAGFEAVENGTVCRGCPSGTFKANQGDEACTHCPINSRTTSEGATNCVCRNGYYRADLDPLDMPCTTIPSAPQAVISSVNETSLMLEWTPPRDSGGREDLVYNIICKSCGSGRGACTRCGDNVQYAPRQLGLTEPRIYISDLLAHTQYTFEIQAVNGVTDQSPFSPQFASVNITTNQAAPSAVSIMHQVSRTVDSITLSWSQPDQPNGVILDYELQYYEKELSEYNATAIKSPTNTVTVQGLKAGAIYVFQVRARTVAGYGRYSGKMYFQTMTEAEYQTSIKEKLPL
In test [1], B1 showed an inhibition of NFATc1 mRNA (real-time RT-PCR) in WT osteoclasts treated with EphB2-Fc against control Fc; not in ephrin B1 deficient cells of 67%, an inhibition of cathepsin K mRNA (real-time RT-PCR) in WT osteoclasts treated with EphB2-Fc against control Fc; not in ephrin B1 deficient cells of 60% and a reduction of TRAP mRNA (real-time RT-PCR) in differentiated WT osteoclasts treated with soluble EphB2-Fc for 4 days against control Fc of 62%. In test [2], this molecule returned an inhibition of the area of bone resorption pits formed by WT osteoclast precursors on bone slices by EphB2-Fc against control Fc; no significant effect on ephrin B1 deficient cells of 54% and a suppression of multinucleated cell (MNC) formation from WT splenocyte precursors by EphB2-Fc (2 µg/ml) against control Fc; little effect on ephrin B1 deficient cells of 49.8%.
